This data set concerns the target T1, second subunit of the Jack Bean (Canavalia ensiformis) β-hexosaminidase.
T1 chain: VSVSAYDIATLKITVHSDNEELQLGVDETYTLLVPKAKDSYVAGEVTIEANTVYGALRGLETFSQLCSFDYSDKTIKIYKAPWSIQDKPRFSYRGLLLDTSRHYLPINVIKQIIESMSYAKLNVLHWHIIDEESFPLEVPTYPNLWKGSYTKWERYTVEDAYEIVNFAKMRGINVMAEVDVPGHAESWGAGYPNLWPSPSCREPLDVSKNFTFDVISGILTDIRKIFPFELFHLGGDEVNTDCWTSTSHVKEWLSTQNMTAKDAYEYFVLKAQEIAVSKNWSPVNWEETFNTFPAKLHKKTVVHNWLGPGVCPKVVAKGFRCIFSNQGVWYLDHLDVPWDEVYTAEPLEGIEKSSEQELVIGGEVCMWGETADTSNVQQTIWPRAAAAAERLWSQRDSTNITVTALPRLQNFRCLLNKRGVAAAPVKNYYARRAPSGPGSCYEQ

B1: first subunit of the Jack Bean (Canavalia ensiformis) β-hexosaminidase (protein)
chain: SIIEPTESLTYLWPLPADFTSGDETLSVDPALTLSVAGNGGGSSILRDAFDRYRGIIFKHSSVGFS
modifications: not fully specified
For B1, the “β-hexosaminidase (b-Hex) activity” value is listed as “Dissociation of the two chains led to a complete loss of activity”.

The values are drawn from patent publication US20240110168.
